These results are taken from PMC12482432.

For data set [1], the system named is T1, EefR (Escherichia coli ATCC 35218 (35218m, acrB-deficient)), ORF:f1625a7f.
T1 sequence: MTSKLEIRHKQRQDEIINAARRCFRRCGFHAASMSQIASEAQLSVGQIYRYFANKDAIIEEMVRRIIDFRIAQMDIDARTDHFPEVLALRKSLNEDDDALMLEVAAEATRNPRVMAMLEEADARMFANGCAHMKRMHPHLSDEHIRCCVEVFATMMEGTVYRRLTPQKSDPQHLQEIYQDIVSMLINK
Kind of data set: competition. The note with it: EMSA in binding buffer (Beyotime kit, composition not given), 25 °C, 20 min; 6% native PAGE at 4 °C; salt and pH not stated. For orientation: Mobility shift assays separate free from complexed probe on a gel.

The test system is the same in data set [2]. Kind of data set: EMSA. The note with it: EMSA in binding buffer (Beyotime kit, composition not given), 25 °C, 20 min; 6% native PAGE at 4 °C; salt and pH not stated.

In the case of “CACAATCTCTTCATTATCAGAATATGCACCATGAATAAGATAAAAATACTTTCCATTACTTTGGAGAAACGTATAATCAGCAAAAATGAGAACGATCATTCTCACCAAGTGATAGGCCAGGAGACAGAA (double strand) [P1 cold probe]”, the binding result in data set [1] was “binds”. With “CACAATCTCTTCATTATCAGAATATGCACCATGAATAAGATAAAAATACTTTCCATTACTTTGGAGAAACGTATAATCAGCAAAAATGAGAACGATCATCCTCACCAAGTGATAGGCCAGGAGACAGAA (double strand) [M1 (one base mutated, MT-1)]”, the binding result in data set [2] was “no binding”. In the case of “CACAATCTCTTCATTATCAGAATATGCACCATGAATAAGATAAAAATACTTTCCATTACTTTGGAGAAACGTATAATCAGCAAAAATGAGAACGATCATTCTCACCAAGTGATAGGCCAGGAGACAGAA (double strand) [P1 (129 bp eefR upstream probe)]”, the binding result in data set [2] is on record as “binds”.

Consider “ACAGAATTAACCAATAGCGGGGGATATTAATCCCCCTTATTTCATTGCGAAATTCATTTCGCGATGCGGGTTCGTTATAACTGAATATCCCTGACATATCCTCATTAATTTTAATGAGGAGGGTATTTCTCACCCTGGAGAAAATA (double strand) [nonspecific probe (148 bp)]”, for which, in data set [1], the binding entry is “no binding”.
